The values below come from patent publication EP0758381B1.

Experiment [1] deals with Eck receptor chimera (ectodomain of the Eck receptor fused to the cytoplasmic domain of the FGF receptor) on BAF cells. Briefly: cell-based or functional assay.
In experiment [2] the target is Elk receptor on transfected 3T3 fibroblasts. As to the kind of experiment: cell-based or functional assay.

As to “soluble Efl-2 (EHK-1L) produced in COS cells (ligand)”, the potency in the proliferation assay, clustered against unclustered ligand in experiment [1] was found to be 100 fold.
The same measure, in the same setting: next, soluble myc-tagged Efl-1 (B61) (ligand): 100 fold.
As for “soluble myc-tagged Efl-3 (ELK-L) (ligand)”, the potency in the phosphorylation assay, clustered against unclustered ligand in experiment [2] was determined as 100 fold.
